Results reported in patent US20260193326A1 (published 2026).
Numbering of substitutions follows the chain as printed. Where two headings read alike, the source gives them in different places.

Legend:
[1] = target: T1, AAV5 (adeno-associated virus serotype 5); experiment: SPR, AAV on CM5 chip
T1 construct: also called adeno-associated virus serotype 5
Description: (§1) AAV was amine-coupled to a CM5 sensor chip at a density of 500-800 response units (RU). Nanobodies were injected at seven concentrations (1-100 nM) with a flow rate of 45 μL/min, and chip regeneration was performed using glycine-HCl (pH 1.5). Binding curves at different nanobody concentrations were used to calculate kinetic parameters (Kₐ, Kd, KD) (Table 2 and FIG. 2).

[2] = target: T2, AAV2 (adeno-associated virus serotype 2, UniProt P03135 1-735); experiment: SPR, AAV on CM5 chip
T2 construct: also called adeno-associated virus serotype 2
Description: as §1

[3] = target: T3, AAV8 (adeno-associated virus serotype 8); experiment: SPR, AAV on CM5 chip
T3 construct: also called adeno-associated virus serotype 8
Description: as §1

[4] = target: T4, AAV9 (adeno-associated virus serotype 9); experiment: SPR, AAV on CM5 chip
T4 construct: also called adeno-associated virus serotype 9
Description: as §1

[5] = target: Adeno-associated virus serotype 5 (AAV5) (AAV5); experiment: SPR, AAV amine-coupled to CM5 chip, nanobody 1-50 nM as analyte
[6] = target: Adeno-associated virus serotype 8 (AAV8) (AAV8); experiment: as above
[7] = target: Adeno-associated virus serotype 9 (AAV9) (AAV9); experiment: as above
[8] = target: T1, AAV5; experiment: SPR, AAV on CM5 chip; remark: listed apart in the source
[9] = target: T2, AAV2; experiment: SPR, AAV on CM5 chip; remark: listed apart in the source
[10] = target: T3, AAV8; experiment: SPR, AAV on CM5 chip; remark: listed apart in the source
[11] = target: T4, AAV9; experiment: SPR, AAV on CM5 chip; remark: listed apart in the source
[12] = target: T5, AAV8 (adeno-associated virus serotype 8 (AAV8)); experiment: 1 mL column of A4-002 coupled to agarose gel (11.58 mg/g gel); AAV capsid particles bound
T5 construct: also called adeno-associated virus serotype 8; AAV8 antigen

[13] = target: T6, AAV9 (adeno-associated virus serotype 9 (AAV9)); experiment: as above
T6 construct: also called adeno-associated virus serotype 9; AAV9 antigen

[14] = target: T7, AAV5 (adeno-associated virus serotype 5 (AAV5)); experiment: as above
T7 construct: also called adeno-associated virus serotype 5; AAV5 antigen

[15] = target: T8, AAV6 (adeno-associated virus serotype 6 (AAV6)); experiment: as above
T8 construct: also called adeno-associated virus serotype 6

[16] = target: T1, AAV5; experiment: SPR, AAV on CM5 chip; remark: listed apart in the source
[17] = target: T2, AAV2; experiment: SPR, AAV on CM5 chip; remark: listed apart in the source
[18] = target: T3, AAV8; experiment: SPR, AAV on CM5 chip; remark: listed apart in the source
[19] = target: T4, AAV9; experiment: SPR, AAV on CM5 chip; remark: listed apart in the source

B1: A4-105 (VHH)
VHH: VQLQESGGGLVQPGGSLRLSCAASGSIFSLNAMGWYRQAPGKQRELVATITSGGSTNYADSVKGRFTISRDNAKNTAYLQMNNLQPEDTAVYYCHVDEVRESIWTTSNLWGQGTQVTVSS
Work on B1 yielded a Kd [1] of 14 nM, a koff [1] of 0.00139 s⁻¹ and a kon [1] of 99600 M⁻¹ s⁻¹. For the same binder, the Kd [2] was 34.2 nM, the koff [2] was 0.00543 s⁻¹ and the kon [2] was 159000 M⁻¹ s⁻¹. It also gave a Kd [3] of 21.7 nM, a koff [3] of 0.00391 s⁻¹ and a kon [3] of 180000 M⁻¹ s⁻¹. For the same binder, the Kd [4] was 17 nM, the koff [4] was 0.00189 s⁻¹ and the kon [4] was 111000 M⁻¹ s⁻¹.

B2: A4-L1 (A4-017 with a C-terminal IgA hinge followed by a 6xHis tag) (VHH)
VHH: B1 VHH with L30I, A32L, S52R, S55N, D60G, A77V, N83S, Q85R, E101Q, I103S
For B2, the Kd [5] was 569 nM, the koff [5] was 0.00092 s⁻¹ and the kon [5] was 1620 M⁻¹ s⁻¹. For the same binder, the Kd [6] was 220 nM, the koff [6] was 0.00093 s⁻¹ and the kon [6] was 4230 M⁻¹ s⁻¹. For the same binder, the Kd [7] was 0.802 nM, the koff [7] was 0.00011 s⁻¹ and the kon [7] was 137000 M⁻¹ s⁻¹.

B3: A4-T2 (A4-017 with a C-terminal GGGGS linker followed by a 6xHis tag) (VHH)
VHH: B1 VHH with L30I, A32L, S52R, S55N, D60G, A77V, N83S, Q85R, E101Q, I103S
In the case of B3, the Kd [5] is reported as 234 nM, the koff [5] is reported as 0.00147 s⁻¹ and the kon [5] is reported as 6280 M⁻¹ s⁻¹. For the same binder, the Kd [6] was 102 nM, the koff [6] was 0.00078 s⁻¹ and the kon [6] was 7650 M⁻¹ s⁻¹. The Kd [7] was 0.513 nM, the koff [7] was 0.0001 s⁻¹ and the kon [7] was 195000 M⁻¹ s⁻¹.

B4: A4-T1 (A4-017 with a C-terminal 6xHis tag) (VHH)
VHH: B1 VHH with L30I, A32L, S52R, S55N, D60G, A77V, N83S, Q85R, E101Q, I103S
B4 gave a Kd [5] of 268 nM, a koff [5] of 0.00193 s⁻¹ and a kon [5] of 7200 M⁻¹ s⁻¹. For the same binder, the Kd [6] was 202 nM, the koff [6] was 0.00148 s⁻¹ and the kon [6] was 7310 M⁻¹ s⁻¹. For the same binder, the Kd [7] was 0.713 nM, the koff [7] was 0.00012 s⁻¹ and the kon [7] was 168000 M⁻¹ s⁻¹.

B5: A4-111 (VHH)
VHH: VQLQESGGGLAQPGGSLRLSCAASGSNFSINTMGWYRQRAGKQREFVATITRGGSTNYGDSVKGRFTISRDNAKTTVYLQMNSLRPEDTAVYYCHLDEVRESTWTTSNLWGQGTQVTVSS
B5 showed a Kd [1] of 1.06 nM, a koff [1] of 9e-05 s⁻¹ and a kon [1] of 85300 M⁻¹ s⁻¹. The Kd [2] was 3.51 nM, the koff [2] was 0.0002 s⁻¹ and the kon [2] was 56900 M⁻¹ s⁻¹. It also gave a Kd [3] of 1.88 nM, a koff [3] of 0.00014 s⁻¹ and a kon [3] of 74500 M⁻¹ s⁻¹. The Kd [4] was 2 nM, the koff [4] was 0.00025 s⁻¹ and the kon [4] was 125000 M⁻¹ s⁻¹.

B6: A4-H1 (VHH)
VHH: VQLVESGGGLVQPGGSLRLSCAASGRSFSINTMGWFRQAPGKGLEAVAIVTRGGSTYYADSVKGRFTISRDNSKNTLYLQMNSLRAEDTAVYYCHIDEVRQSSWTTSNIWGQGTLVTVSS
B6 was tested, and the Kd [8] was 8.76 nM, the koff [8] was 0.00153 s⁻¹ and the kon [8] was 175000 M⁻¹ s⁻¹. It also gave a Kd [9] of 8.51 nM, a koff [9] of 0.00139 s⁻¹ and a kon [9] of 163000 M⁻¹ s⁻¹. The Kd [10] was 6.82 nM, the koff [10] was 0.00135 s⁻¹ and the kon [10] was 198000 M⁻¹ s⁻¹. For the same binder, the Kd [11] was 127 nM, the koff [11] was 0.00069 s⁻¹ and the kon [11] was 5420 M⁻¹ s⁻¹.

B7: A4-H4 (VHH)
VHH: B6 VHH with R26S, S27I, T32L, A46L, V50I, R52P, S55N, L77V, I96V, I109L
Binder B7 has a Kd [8] of 2.86 nM, a koff [8] of 0.00032 s⁻¹ and a kon [8] of 112000 M⁻¹ s⁻¹. It also gave a Kd [9] of 17.2 nM, a koff [9] of 0.0017 s⁻¹ and a kon [9] of 99000 M⁻¹ s⁻¹. It also gave a Kd [10] of 9.44 nM, a koff [10] of 0.00125 s⁻¹ and a kon [10] of 132000 M⁻¹ s⁻¹. The Kd [11] was 5.91 nM, the koff [11] was 0.00078 s⁻¹ and the kon [11] was 132000 M⁻¹ s⁻¹.

B8: A4-H3 (VHH)
VHH: VQLQASGGGFVQPGGSLRLSCAASGSIFSINLMGWFRQAPGKERELVAVITPGGNTYYADSVKGRFTISRDNSKNTVYLQMNSLRAEDTATYYCHVDEVRQSSWTTSNLWGQGTQVTVSS
For B8, the Kd [8] was 3.05 nM, the koff [8] was 0.00048 s⁻¹ and the kon [8] was 157000 M⁻¹ s⁻¹. It also gave a Kd [10] of 9.59 nM, a koff [10] of 0.00128 s⁻¹ and a kon [10] of 134000 M⁻¹ s⁻¹. For the same binder, the Kd [11] was 4.32 nM, the koff [11] was 0.00073 s⁻¹ and the kon [11] was 169000 M⁻¹ s⁻¹.

B9: A4-H6 (VHH)
VHH: B6 VHH with S27G, L44R, A46L, S55T, L77V, I96V, I109L
B9 gave a Kd [8] of 746 nM, a koff [8] of 0.00565 s⁻¹ and a kon [8] of 7570 M⁻¹ s⁻¹. For the same binder, the Kd [9] was 746 nM, the koff [9] was 0.00565 s⁻¹ and the kon [9] was 7570 M⁻¹ s⁻¹. It also gave a Kd [10] of 344 nM, a koff [10] of 0.00164 s⁻¹ and a kon [10] of 4760 M⁻¹ s⁻¹. It also gave a Kd [11] of 1160 nM, a koff [11] of 0.00177 s⁻¹ and a kon [11] of 1530 M⁻¹ s⁻¹.

B10: A4-002 (VHH)
VHH: VQLQESGGGLVQPGGSLRLSCAASGRSFSINTMGWYRQAPGKQRELVAAVTRGGSTNYAGSVKGRFTISRDNAKNTVYLQMNSLRPEDTAVYYCHIDEVRQSSWTTSNIWGQGTQVTVSS
With B10 the binding capacity [12] was 1.02e+14 VP, the binding capacity [13] was 1.26e+14 VP and the binding capacity [14] was 1.17e+14 VP. For the same binder, the binding capacity [15] was 9.2e+13 VP.

B11: A4-M1 (A4-017 with an N-terminal amino acid sequence MetAlaGln) (VHH)
VHH: QVQLQESGGGLVQPGGSLRLSCAASGSIFSINLMGWYRQAPGKQRELVATITRGGNTNYAGSVKGRFTISRDNAKNTVYLQMNSLRPEDTAVYYCHVDEVRQSSWTTSNLWGQGTQVTVSS
B11 showed a Kd [5] of 324 nM, a koff [5] of 0.00189 s⁻¹ and a kon [5] of 5830 M⁻¹ s⁻¹. The Kd [6] was 196 nM, the koff [6] was 0.0014 s⁻¹ and the kon [6] was 7150 M⁻¹ s⁻¹. The Kd [7] was 0.821 nM, the koff [7] was 0.00015 s⁻¹ and the kon [7] was 183000 M⁻¹ s⁻¹.

B12: A4-M2 (A4-017 with an N-terminal methionine) (VHH)
VHH: B11 VHH
B12 was tested, and the Kd [5] was 415 nM, the koff [5] was 0.002 s⁻¹ and the kon [5] was 4820 M⁻¹ s⁻¹. For the same binder, the Kd [6] was 171 nM, the koff [6] was 0.001 s⁻¹ and the kon [6] was 5830 M⁻¹ s⁻¹. For the same binder, the Kd [7] was 0.874 nM, the koff [7] was 0.00013 s⁻¹ and the kon [7] was 149000 M⁻¹ s⁻¹.

B13: A4-B3 (VHH)
chain: VQLVESGGGLVQPGGSLRLSCAASGRSFSINTMGWFRQAPGKGLEAVAIVTRGGSTYYADSVKGRFTISRDNSKNTLYLQMNSLRAEDTAVYYCHIDEVRQSSWTTSNIWGQGTLVTVSSGGGGSGGGGSGGGGSVQLVESGGGLVQPGGSLRLSCAASGRSFSINTMGWFRQAPGKGLEAVAIVTRGGSTYYADSVKGRFTISRDNSKNTLYLQMNSLRAEDTAVYYCHIDEVRQSSWTTSNIWGQGTLVTVSS
Work on B13 yielded a Kd [16] of 0.556 nM, a koff [16] of 0.0001 s⁻¹ and a kon [16] of 180000 M⁻¹ s⁻¹. The Kd [17] was 0.245 nM, the koff [17] was 2e-05 s⁻¹ and the kon [17] was 81600 M⁻¹ s⁻¹. It also gave a Kd [18] of 0.835 nM, a koff [18] of 8e-05 s⁻¹ and a kon [18] of 95800 M⁻¹ s⁻¹. For the same binder, the Kd [19] was 20.3 nM, the koff [19] was 0.00095 s⁻¹ and the kon [19] was 46800 M⁻¹ s⁻¹.

B14: A4-B4 (bispecific antibody)
chain: B13 chain with R161S, S162I, T167L, A181L, V185I, R187P, S190N, L212V, I231V, I244L
With B14 the Kd [16] was 0.872 nM, the koff [16] was 0.00016 s⁻¹ and the kon [16] was 184000 M⁻¹ s⁻¹. The Kd [17] was 0.835 nM, the koff [17] was 8e-05 s⁻¹ and the kon [17] was 95800 M⁻¹ s⁻¹. The Kd [18] was 0.332 nM, the koff [18] was 5e-05 s⁻¹ and the kon [18] was 151000 M⁻¹ s⁻¹. It also gave a Kd [19] of 5.26 nM, a koff [19] of 0.00063 s⁻¹ and a kon [19] of 120000 M⁻¹ s⁻¹.

B15: A4-114 (VHH)
VHH: VQLQESGGGLVQTGGSLRLSCVASGSIFSINTVGWYRQAPGKQRELVATVTRAGSTWYAGSVKGRFTISRDNTKNTIYLQMNSLRPEDTAVYYCHVDELRQSTWTTSNLWGQGTQVTVSS
With B15 the Kd [1] was 7.11 nM, the koff [1] was 0.0011 s⁻¹ and the kon [1] was 155000 M⁻¹ s⁻¹. It also gave a Kd [2] of 1.95 nM, a koff [2] of 0.00022 s⁻¹ and a kon [2] of 113000 M⁻¹ s⁻¹. It also gave a Kd [3] of 1.81 nM, a koff [3] of 0.00017 s⁻¹ and a kon [3] of 94000 M⁻¹ s⁻¹. For the same binder, the Kd [4] was 472 nM, the koff [4] was 0.00123 s⁻¹ and the kon [4] was 2610 M⁻¹ s⁻¹.
